Measurements taken from US20210024646A1 (published 2021).
Numbering of substitutions follows the chain as printed. Where “and” joins values, the source holds several entries; their conditions need not be identical. Equal entries are not always repeated. Where two headings read alike, the source gives them in different places. One block for each binder: values may come before it.

Key:
[1] = target: T1, CD73 on the surface of human tumor cells (human, UniProt P21589 27-549); assay: FACS; MDA-MB-231 cells
T1 chain: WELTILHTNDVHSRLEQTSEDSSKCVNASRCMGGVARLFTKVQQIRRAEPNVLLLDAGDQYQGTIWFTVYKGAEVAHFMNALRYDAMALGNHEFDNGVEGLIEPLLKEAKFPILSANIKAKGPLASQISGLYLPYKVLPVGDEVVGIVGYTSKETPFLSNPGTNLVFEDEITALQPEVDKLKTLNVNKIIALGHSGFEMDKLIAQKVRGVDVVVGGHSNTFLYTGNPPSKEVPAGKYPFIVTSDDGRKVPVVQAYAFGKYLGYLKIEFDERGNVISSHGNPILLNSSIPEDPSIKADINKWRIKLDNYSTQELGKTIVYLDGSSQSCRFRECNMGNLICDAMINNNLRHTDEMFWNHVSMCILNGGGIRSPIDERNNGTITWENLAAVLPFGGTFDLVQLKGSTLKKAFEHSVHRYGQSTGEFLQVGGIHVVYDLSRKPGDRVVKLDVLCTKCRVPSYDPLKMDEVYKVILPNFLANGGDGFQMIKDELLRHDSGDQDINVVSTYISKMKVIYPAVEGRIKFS

[2] = target: T2, Carbon-terminal polyhistidine-labeled recombinant cynomolgus monkey CD73 enzyme (cynomolgus monkey, UniProt A0A2K5V5U7 1-547); assay: enzyme inhibition; left table
T2 chain: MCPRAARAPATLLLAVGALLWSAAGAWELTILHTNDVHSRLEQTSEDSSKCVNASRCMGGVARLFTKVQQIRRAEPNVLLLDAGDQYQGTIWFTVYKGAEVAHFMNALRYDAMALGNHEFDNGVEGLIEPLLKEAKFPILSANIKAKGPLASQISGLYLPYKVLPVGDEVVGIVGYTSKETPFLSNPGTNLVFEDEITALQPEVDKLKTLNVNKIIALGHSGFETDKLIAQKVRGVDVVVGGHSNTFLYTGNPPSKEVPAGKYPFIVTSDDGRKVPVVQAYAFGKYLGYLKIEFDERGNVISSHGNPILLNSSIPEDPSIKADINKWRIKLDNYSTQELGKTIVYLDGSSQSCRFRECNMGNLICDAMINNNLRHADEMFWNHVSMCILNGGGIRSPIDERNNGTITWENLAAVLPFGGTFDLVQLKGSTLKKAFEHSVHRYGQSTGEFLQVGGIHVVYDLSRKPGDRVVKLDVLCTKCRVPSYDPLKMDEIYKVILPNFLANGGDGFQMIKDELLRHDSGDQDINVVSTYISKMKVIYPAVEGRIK

[3] = target: T1, CD73 on the surface of human tumor cells; assay: FACS; MDA-MB-231 cells, right table
[4] = target: T2, Carbon-terminal polyhistidine-labeled …; assay: enzyme inhibition; right table
[5] = target: T3, extracellular domain of human CD73 protein (CD73-ECD), C-terminus polyhistidine-tagged (UniProt P21589 27-547); assay: enzyme inhibition; left table
T3 chain: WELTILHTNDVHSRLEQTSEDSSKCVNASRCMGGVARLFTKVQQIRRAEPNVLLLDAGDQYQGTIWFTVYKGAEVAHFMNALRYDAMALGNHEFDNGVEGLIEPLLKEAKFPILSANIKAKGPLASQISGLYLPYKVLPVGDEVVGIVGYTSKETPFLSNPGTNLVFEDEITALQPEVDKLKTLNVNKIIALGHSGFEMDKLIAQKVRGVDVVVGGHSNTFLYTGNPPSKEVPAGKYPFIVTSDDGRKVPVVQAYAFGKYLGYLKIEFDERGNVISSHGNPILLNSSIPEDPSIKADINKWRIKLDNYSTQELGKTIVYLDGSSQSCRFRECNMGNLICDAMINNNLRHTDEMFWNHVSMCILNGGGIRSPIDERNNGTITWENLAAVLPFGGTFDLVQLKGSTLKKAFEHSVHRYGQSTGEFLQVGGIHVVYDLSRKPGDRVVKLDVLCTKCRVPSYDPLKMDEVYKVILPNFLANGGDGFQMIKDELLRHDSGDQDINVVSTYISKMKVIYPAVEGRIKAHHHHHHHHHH

[6] = target: T3, extracellular domain of human CD73 …; assay: enzyme inhibition; right table
[7] = target: T1, CD73 on the surface of human tumor cells; assay: FACS; NCI-H1299 cells, left table
[8] = target: T1, CD73 on the surface of human tumor cells; assay: FACS; MDA-MB-231 cells, left table
[9] = target: T3, extracellular domain of human CD73 …; assay: ELISA
[10] = target: T3, extracellular domain of human CD73 …; assay: ELISA
[11] = target: T1, CD73 on the surface of human tumor cells; assay: FACS; NCI-H1299 cells, right table
[12] = target: T1, CD73 on the surface of human tumor cells; assay: FACS; NCI-H1299 cells, right table
[13] = target: T1, CD73 on the surface of human tumor cells; assay: inhibition of cell-surface CD73 enzyme activity; left panel
[14] = target: T1, CD73 on the surface of human tumor cells; assay: FACS; MDA-MB-231 cells, right table
[15] = target: T1, CD73 on the surface of human tumor cells; assay: inhibition of cell-surface CD73 enzyme activity; right panel
[16] = target: T1, CD73 on the surface of human tumor cells; assay: FACS; NCI-H1299 cells, left table
[17] = target: T1, CD73 on the surface of human tumor cells; assay: FACS; MDA-MB-231 cells, left table

EC50 [9]: 0.05 nM
B4: mAb002c-VH-QG (antibody, V domains shown)
VH: QVQLQQPGAELVKPGASVRLSCKASGYTLTSYWMHWVKKRPGQGLEWIGEINPSQGRSNYNEKFKSKATLTVDRSSSTVYMQLGSLTSEDSAVYYCARRGVSGNYFDYWGQGTTLTVSS
VL: DIKMTQSPSSMYASLGERVTMTCKASQDINTYLSWFQQKPGKSPKTLIYRSNILVDGVPSRFSGSRSGQDYYLTITSLEYEDMGIYYCLQYDEFPYTFGGGTKLELK

EC50 [9]: 0.063 nM
B6: mAb002c-VK-SG (antibody, V domains shown)
VH: B4 VH with Q55N
VL: B4 VL with D56S

Further lines, the binder ahead of its results:

B1: mAb001c (antibody, V domains shown)
VH: QVQLQQSGPELVKPGASVRISCKTSGYTFTNYYIYWVKQRPGQGLEWIGWIYPGNLNIKYNEKFKGKSTLTADKSSSTAFMQLSSLTSEDSAVYFCARDDNYAWFAYWGQGTLVTVSS
VL: DIVMTQSHKFMSTSIGDRVSITCKASQDVSTAVAWYQQKPGQSPKLLIYWTNTRHTGVPDRFTGNTSGTEHTLTISSVQAEDLALYYCQQHYSTPFTFGSGTTLEIK
EC50 [1]: 1.19 nM
IC50 [2]: 0.04 nM
EC50 [3]: 0.618 nM
IC50 [4]: 0.04 nM
IC50 [5]: 0.03 nM
IC50 [6]: 0.02 nM
EC50 [7]: 1.48 nM
EC50 [8]: 0.45 nM

B2: mAb001c-VK-SGS (antibody, V domains shown)
VH: B1 VH
VL: B1 VL with N65S, T66G
EC50 [9]: 0.073 nM
EC50 [10]: 0.099 nM and 0.054 nM
EC50 [7]: 1.62 nM
EC50 [11]: 1.65 nM

B3: mAb002c (antibody, V domains shown)
VH: B4 VH with Q55N
VL: B4 VL
EC50 [1]: 0.544 nM
IC50 [2]: 0.039 nM
EC50 [12]: 0.53 nM
IC50 [4]: 0.039 nM
IC50 [13]: 0.317 nM
IC50 [5]: 0.037 nM
IC50 [6]: 0.038 nM
EC50 [14]: 0.466 nM
IC50 [15]: 0.363 nM
EC50 [16]: 0.658 nM
EC50 [17]: 0.466 nM

B5: mAb002c-VH-NA (antibody, V domains shown)
VH: B4 VH with Q55N, G56A
VL: B4 VL
EC50 [9]: 0.051 nM
